In US12281340B2, “Method of producing N-acyl-amino group-containing compound” (AJINOMOTO CO., INC., priority 2018, dated 2025):

What was measured:
Format in all cases: biochemical
Parameters in all cases: key: +: Detected; −: Not detected
[1] = Synthesis of N-caprinoyl-amino acid derivative, N-caprinoyl-D-amino acid and N-caprinoyl-peptide using purified acylamino acid synthetase, UPLC-MS detection; details: +ATP
Protocol: 0.2 mL of a reaction solution containing 50 mM Tris-HCl, 5 mM amino acid derivative or D-amino acid or peptide, 5 mM sodium caprate, 10 mM ATP, 10 mM MgCl2, 1 mM DTT, 50 μg/mL of the purified enzyme, pH 8.0 was incubated at 25° C. for 24 hours. After completion of the reaction, 0.8 mL of the reaction stop solution (1% (v/v) phosphoric acid, 75% (v/v) methanol) was added, and the mixture was filtrated through the filter followed by being subjected to the UPLC-MS analysis to detect a signal of a molecular weight corresponding to an N-caprinoyl-amino acid derivative, an N-caprinoyl-amino acid or an N-caprinoyl-peptide. A condition for the UPLC-MS analysis is as described in Example 2.
As a result of the UPLC-MS analysis, the signal of the molecular weight corresponding to the N-caprinoyl-amino acid derivative, or N-caprinoyl-amino acid, or N-caprinoyl-peptide was confirmed in the reaction solution containing the enzyme in combination with the amino acid derivative or the D-amino acid or the peptide shown in Table 4 below.

[2] = Synthesis of N-acylamino acids from various fatty acids using purified acylamino acid synthetase, UPLC-MS detection
Protocol: 0.1 mL of a reaction solution containing 50 mM Tris-HCl, 5 mM amino acid, 5 mM sodium fatty acid (3 mM of sodium palmitate or sodium stearate), 10 mM ATP, 10 mM MgCl2, 1 mM DTT, 200 μg/mL of the purified enzyme, pH 8.0 was shaken at 25° C. for 24 hours. When sodium palmitate or sodium stearate was used, methanol at a final concentration of 10% (v/v) was contained in the reaction solution. As the amino acid, L-Asp was used in AtGH3-6, OsGH3-8, AtGH3-5, AtGH3-12, L-Ile was used in AtJAR1, L-Ala was used in AtGH3-10, SsGH3, L-Glu was used in AtGH3-17, Gly was used in CfHP, L-Lys was used in PsIAAL, and L-Cys was used in PaHP. After completion of the reaction, 0.4 mL of the reaction stop solution (1% (v/v) phosphoric acid, 75% (v/v) methanol) was added, and the mixture was filtrated through the filter followed by being subjected to the UPLC-MS analysis to detect a signal of a molecular weight corresponding to the N-acylamino acid.
The condition for the UPLC-MS analysis is as follows.
(§1) Apparatus: ACQUITY UPLC (Waters)
Column: ACQUITY UPLC BEH C18 1.7 μm 2.1×100 mm Column (Waters), mobile phase A: 0.1% formic acid; mobile phase B: acetonitrile
• Flow rate: 0.6 mL/minute • Injection amount: 2 μL • Column temperature: 40° C. • Ionization method: ESI-negative
As a result of the UPLC-MS analysis, the signal of the molecular weight corresponding to the appropriate N-acylamino acid was confirmed in the reaction solution containing the enzyme in combination with sodium fatty acid shown in Table 7 below.

[3] = Synthesis of N-caprinoylamino acid using purified acylamino acid synthetase, UPLC-MS detection; details: +ATP
Protocol: 2.0 mL of a reaction solution containing 50 mM Tris-HCl, 5 mM amino acid, 5 mM sodium caprate, 10 mM ATP, 10 mM MgCl2, 1 mM DTT, 50 μg of the purified enzyme, pH 8.0 was incubated at 25° C. for 24 hours. After completion of the reaction, 0.8 mL of a reaction stop solution (1% (v/v) phosphoric acid, 75% (v/v) methanol) was added, and the mixture was filtrated through a filter followed by being subjected to the UPLC-MS analysis to detect a signal of a molecular weight corresponding to an N-caprinoyl amino acid.
A UPLC-MS analysis condition is as follows.
as §1
• Column: ACQUITY UPLC BEH C18 1.7 2.1×100 mm Column (Waters) • Mobile phase A: 0.1% formic acid • Mobile phase B: acetonitrile Gradient
• Flow rate: 0.6 mL/min • Injection amount: 2 μL • Column temperature: 40° C. • Ionization method: ESI-negative
As a result of the UPLC-MS analysis, the signal of the molecular weight corresponding to the N-caprinoyl amino acid was confirmed in the reaction solution combining the enzyme and the amino acid shown in Table 3 below.

[4] = substrates Carnosine and sodium caprate
[5] = substrates D-Ala and sodium caprate
[6] = substrates D-Asp and sodium caprate
[7] = substrates D-Cys and sodium caprate
[8] = substrates D-Glu and sodium caprate
[9] = substrates D-Ile and sodium caprate
[10] = substrates D-Lys and sodium caprate
[11] = substrates L-Asp-L-Phe and sodium caprate
[12] = substrates L-Gly-L-Gly and sodium caprate
[13] = substrates Sarcosine and sodium caprate
[14] = substrates Taurine and sodium caprate
[15] = substrates GABA and sodium caprate
[16] = substrates Gly and sodium caprate
[17] = substrates L-Ala and sodium caprate
[18] = substrates L-Arg and sodium caprate
[19] = substrates L-Asn and sodium caprate
[20] = substrates L-Asp and sodium caprate
[21] = substrates L-Cys and sodium caprate
[22] = substrates L-Gln and sodium caprate
[23] = substrates L-Glu and sodium caprate
[24] = substrates L-His and sodium caprate
[25] = substrates L-Ile and sodium caprate
[26] = substrates L-Leu and sodium caprate
[27] = substrates L-Lys and sodium caprate
[28] = substrates L-Met and sodium caprate
[29] = substrates L-Phe and sodium caprate
[30] = substrates L-Pro and sodium caprate
[31] = substrates L-Ser and sodium caprate
[32] = substrates L-Thr and sodium caprate
[33] = substrates L-Trp and sodium caprate
[34] = substrates L-Tyr and sodium caprate
[35] = substrates L-Val and sodium caprate
[36] = substrates β-Ala and sodium caprate

| signal of molecular weight corresponding to N-caprinoyl compound [1, 4] | signal of molecular weight corresponding to N-caprinoyl compound [1, 5] | signal of molecular weight corresponding to N-caprinoyl compound [1, 6] | signal of molecular weight corresponding to N-caprinoyl compound [1, 7] | signal of molecular weight corresponding to N-caprinoyl compound [1, 8] | signal of molecular weight corresponding to N-caprinoyl compound [1, 9] | signal of molecular weight corresponding to N-caprinoyl compound [1, 10] | signal of molecular weight corresponding to N-caprinoyl compound [1, 11] | signal of molecular weight corresponding to N-caprinoyl compound [1, 12] | signal of molecular weight corresponding to N-caprinoyl compound [1, 13] | signal of molecular weight corresponding to N-caprinoyl compound [1, 14] | signal of molecular weight corresponding to N-caprinoyl amino acid [3, 15] | signal of molecular weight corresponding to N-caprinoyl amino acid [3, 16] | signal of molecular weight corresponding to N-caprinoyl amino acid [3, 17] | signal of molecular weight corresponding to N-caprinoyl amino acid [3, 18] | signal of molecular weight corresponding to N-caprinoyl amino acid [3, 19] | signal of molecular weight corresponding to N-caprinoyl amino acid [3, 20] | signal of molecular weight corresponding to N-caprinoyl amino acid [3, 21] | signal of molecular weight corresponding to N-caprinoyl amino acid [3, 22] | signal of molecular weight corresponding to N-caprinoyl amino acid [3, 23] | also measured | Molecule |
| --- | --- | --- | --- | --- | --- | --- | --- | --- | --- | --- | --- | --- | --- | --- | --- | --- | --- | --- | --- | --- | --- |
| − | + | + | − | + | + | − | − | + | + | + | + | + | + | + | + | + | − | + | + | signal of molecular weight corresponding to N-acylamino acid ([2]; substrates L-Ile and Capric acid): +; signal of molecular weight corresponding to N-acylamino acid ([2]; substrates L-Ile and Caproic acid): +; signal of molecular weight corresponding to N-acylamino acid ([2]; substrates L-Ile and Caprylic acid): +; signal of molecular weight corresponding to N-acylamino acid ([2]; substrates L-Ile and Lauric acid): +; signal of molecular weight corresponding to N-acylamino acid ([2]; substrates L-Ile and Linoleic acid): −; signal of molecular weight corresponding to N-acylamino acid ([2]; substrates L-Ile and Palmitic acid): −; signal of molecular weight corresponding to N-acylamino acid ([2]; substrates L-Ile and myristic acid): −; signal of molecular weight corresponding to N-caprinoyl amino acid [3, 24]: +; signal of molecular weight corresponding to N-caprinoyl amino acid [3, 25]: +; signal of molecular weight corresponding to N-caprinoyl amino acid [3, 26]: +; signal of molecular weight corresponding to N-caprinoyl amino acid [3, 27]: −; signal of molecular weight corresponding to N-caprinoyl amino acid [3, 28]: +; signal of molecular weight corresponding to N-caprinoyl amino acid [3, 29]: +; signal of molecular weight corresponding to N-caprinoyl amino acid [3, 30]: +; signal of molecular weight corresponding to N-caprinoyl amino acid [3, 31]: +; signal of molecular weight corresponding to N-caprinoyl amino acid [3, 32]: +; signal of molecular weight corresponding to N-caprinoyl amino acid [3, 33]: +; signal of molecular weight corresponding to N-caprinoyl amino acid [3, 34]: +; signal of molecular weight corresponding to N-caprinoyl amino acid [3, 35]: +; signal of molecular weight corresponding to N-caprinoyl amino acid [3, 36]: + | AtJAR1: Jasmonic acid-amido synthetase JAR1 from Arabidopsis thaliana, His-tagged (protein, listed as Arabidopsis thaliana, His-tag, Jasmonic acid-amido synthetase JAR1 from Arabidopsis thaliana, His-tagged) MLEKVETFDMNRVIDEFDEMTRNAHQVQKQTLKEILLKNQSAIYLQNCGLNGNATDPEEAFKSMVPLVTDVELEPYIKRMVDGDTSPILTGHPVPAISLSSGTSQGRPKFIPFTDELMENTLQLFRTAFAFRNRDFPIDDNGKALQFIFSSKQYISTGGVPVGTATTNVYRNPNFKAGMKSITSPSCSPDEVIFSPDVHQALYCHLLSGILFRDQVQYVFAVFAHGLVHAFRTFEQVWEEIVTDIKDGVLSNRITVPSVRTAMSKLLTPNPELAETIRTKCMSLSNWYGLIPALFPNAKYVYGIMTGSMEPYVPKLRHYAGDLPLVSHDYGSSEGWIAANVTPRLSPEEATFAVIPNLGYFEFLPVSETGEGEEKPVGLTQVKIGEEYEVVITNYAGLYRYRLGDVVKVIGFYNNTPQLKFICRRNLILSINIDKNTERDLQLSVESAAKRLSEEKIEVIDFSSYIDVSTDPGHYAIFWEISGETNEDVLQDCCNCLDRAFIDAGYVSSRKCKTIGALELRVVAKGTFRKIQEHFLGLGSSAGQFKMPRCVKPSNAKVLQILCENVVSSYFSTAF |
| + | + | + | + | + | + | + | − | + | − | + | + | + | + | + | + | + | + | + | + | signal of molecular weight corresponding to N-caprinoyl amino acid [3, 24]: −; signal of molecular weight corresponding to N-caprinoyl amino acid [3, 25]: +; signal of molecular weight corresponding to N-caprinoyl amino acid [3, 26]: +; signal of molecular weight corresponding to N-caprinoyl amino acid [3, 27]: +; signal of molecular weight corresponding to N-caprinoyl amino acid [3, 28]: +; signal of molecular weight corresponding to N-caprinoyl amino acid [3, 29]: +; signal of molecular weight corresponding to N-caprinoyl amino acid [3, 30]: −; signal of molecular weight corresponding to N-caprinoyl amino acid [3, 31]: +; signal of molecular weight corresponding to N-caprinoyl amino acid [3, 32]: +; signal of molecular weight corresponding to N-caprinoyl amino acid [3, 33]: +; signal of molecular weight corresponding to N-caprinoyl amino acid [3, 34]: +; signal of molecular weight corresponding to N-caprinoyl amino acid [3, 35]: +; signal of molecular weight corresponding to N-caprinoyl amino acid [3, 36]: + | PaHP: hypothetical protein from Pantoea agglomerans (PaaK protein), His-tagged (protein, His-tag; Pantoea agglomerans, hypothetical protein from Pantoea agglomerans (PaaK protein), His-tagged) MRSYDHQPTFVEQHNRISIISGSTFRDYEHFARSVPISKLVRMHEVEGKQGDDSSANLPSLIGATSGTSGKMKPVRIQLKNGGCSVSASERNFIYHLRERRVFFPQDVVGNLFTINLFSTLHQSACDIVKYCQGSIVPVGDIALLTRDHFLFLQEVELSVLFGVPATIIQFVEAMLSNKVPIGIKKIVFTGETLRPSQAEWLRSRLGRTLSIVGLYGLSECGFLGLTDAQDCDEYTLFNDDFFFEQDPVHGLLVTSLDPSAKNRLIRYPTGDGVELTFHNKQLKMRIMARKDLLFNFVGNLISVESIAATVAESIPESFIQLVIRSEKGQQELLLVNVAGKNLQTQQLELIAQKLRARPELAEVYQKQRGRLEVHSVAENAFVLSARGKHQFVVDERE |
